Experiments:
[1] = target: bovine lactoferrin (bovine); assay: AUC; follow-up multi-signal sedimentation velocity (MSSV) without constraints, conducted almost identically to a1 but with absorbance at 280 nm and 250 nm and no interference signal; Tp34/bLF mixture in solution
[2] = target: bovine lactoferrin (bovine); assay: AUC; multi-signal sedimentation velocity (MSSV) with mass conservation and low-s constraints; mixture of 6.9 µM Tp34 and 2.3 µM bLF in solution, diluted from Buffer A into 20 mM Tris pH 7.5, 20 mM NaCl; 20°C, 50,000 rpm; interference + absorbance at 280 nm; Kd estimated from the reaction boundary molar ratio by effective particle theory, assuming sAB = 6.2 S

B1: Tp34 from Treponema pallidum (natural protein)
chain: CGGGGEHQHGEEMMAAVPAPDAEGAAGFDEFPIGEDRDVGPLHVGGVYFQPVEMHPAPGAQPSKEEADCHIEADIHANEAGKDLGYGVGDFVPYLRVVAFLQKHGSEKVQKVMFAPMNAGDGPHYGANVKFEEGLGTYKVRFEIAAPSHDEYSLHIDEQTGVSGRFWSEPLVAEWDDFEWKGPQW
stoichiometry N (mol Tp34 per mol bLF) [1]: 0.7 | Kd [2]: 3.1 µM | stoichiometry N (mol Tp34 per mol bLF) [2]: 0.7

From PMC3656001
